For the data set, the system named is recombinant human PAD2 and PAD4. In words: Citrullination site mapping by trypsin digestion and mass spectrometry; protein-level modifications over native, PAD2- and PAD4-citrullinated samples combined. Type of data set: biochemical. The following applies: trypsin digest, Sequest HT search; co-identified proteins in the fibrinogen and vimentin samples (native, PAD2-cit, PAD4-cit); not split by sample or enzyme. From the text: Description: Raw mass spectrometry data for proteolytic mapping of fibrinogen, vimentin, and hnRNP A2/B1 by cathepsins B, S, and H (sheets 1-6); citrullination site mapping of fibrinogen and vimentin by trypsin digestion (sheets 7-8); and the natural antigen processing assay with native, PAD2-citrullinated (PAD2-cit), and PAD4-citrullinated (PAD4-cit) fibrinogen (sheets 9-11).

B1: Tubulin beta-4A chain (protein, UniProt P04350 1-444, looked up)
Tubulin beta-4A chain: MREIVHLQAGQCGNQIGAKFWEVISDEHGIDPTGTYHGDSDLQLERINVYYNEATGGNYVPRAVLVDLEPGTMDSVRSGPFGQIFRPDNFVFGQSGAGNNWAKGHYTEGAELVDAVLDVVRKEAESCDCLQGFQLTHSLGGGTGSGMGTLLISKIREEFPDRIMNTFSVVPSPKVSDTVVEPYNATLSVHQLVENTDETYCIDNEALYDICFRTLKLTTPTYGDLNHLVSATMSGVTTCLRFPGQLNADLRKLAVNMVPFPRLHFFMPGFAPLTSRGSQQYRALTVPELTQQMFDAKNMMAACDPRHGRYLTVAAVFRGRMSMKEVDEQMLSVQSKNSSYFVEWIPNNVKTAVCDIPPRGLKMAATFIGNSTAIQELFKRISEQFTAMFRRKAFLHWYTGEGMDEMEFTEAESNMNDLVSEYQQYQDATAEEGEFEEEAEEEVA
As to B1, the “Modifications (Deamidated [R...] = citrullinated arginine positions found)” value was “Deamidated [R2]”.

Source of the values: paper PMC9958131 (Nature Communications, 2023).
